In patent US20030125231:

Test system: Histone III (type ss from calf thymus)

“His-tagged Pim-2 (purified recombinant human Pim-2, expressed in E. coli)” was tested. Which “Incorporation of 33P into Histone (in vitro kinase assay, 15, 30 and 60 min)” value did it give?
Its value is “purified recombinant Pim-2 is active in phosphorylating Histone”.
